According to patent publication US20120184488A1, “INSULIN ANALOGUES OF ENHANCED RECEPTOR-BINDING SPECIFICITY” (CASE WESTERN RESERVE UNIVERSITY, priority 2009, published 2012):

Tests used:
[1] = biological target: insulin receptor, isoform B (human) (UniProt P06213); test: competitive displacement, antibody-capture microtiter plate, IR isoform B
[2] = biological target: Type I insulin-like growth factor receptor (UniProt P08069); test: competitive displacement of 125I-IGF-1, antibody-capture microtiter plate, IGFR
[3] = biological target: insulin receptor, isoform B (human) (UniProt P06213); test: competitive displacement of 125I-insulin, antibody-capture microtiter plate, IR isoform B
IR = IR (Homo sapiens, UniProt P06213); settings: relative to human insulin; cited from earlier work

Chain of Ala^A4-His^A8-DKP-insulin (ligand) (chain): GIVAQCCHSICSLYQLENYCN
Chain of Ala^A4-His^A8-DKP-insulin (ligand) (chain): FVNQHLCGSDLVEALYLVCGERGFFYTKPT
Chain of His^A4-His^A8-His^B1-insulin (ligand) (chain): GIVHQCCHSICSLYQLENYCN
Chain of His^A4-His^A8-His^B1-insulin (ligand) (chain): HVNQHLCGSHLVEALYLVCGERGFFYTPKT

Substance: Ala^A4-His^A8-DKP-insulin (ligand)
- relative affinity for IR (percent of human insulin) [1]: 384%

Substance: Dab^A8-insulin (ligand)
- relative affinity for IGFR (percent of IGF-I) [2]: 0.13%
- relative affinity for IR (percent of human insulin) [3]: 91%

Substance: insulin Detemir®
- affinity for IR / receptor binding (IR): decreased affinity

Substance: His^A4-His^A8-His^B1-insulin (ligand)
- relative affinity for IR (percent of human insulin) [1]: 125%
